# T1: EsCas13d, nuclease-dead (Eubacterium siraeum, UniProt B0MS50, R295A;H300A;R849A;H854A)
# T1 sequence: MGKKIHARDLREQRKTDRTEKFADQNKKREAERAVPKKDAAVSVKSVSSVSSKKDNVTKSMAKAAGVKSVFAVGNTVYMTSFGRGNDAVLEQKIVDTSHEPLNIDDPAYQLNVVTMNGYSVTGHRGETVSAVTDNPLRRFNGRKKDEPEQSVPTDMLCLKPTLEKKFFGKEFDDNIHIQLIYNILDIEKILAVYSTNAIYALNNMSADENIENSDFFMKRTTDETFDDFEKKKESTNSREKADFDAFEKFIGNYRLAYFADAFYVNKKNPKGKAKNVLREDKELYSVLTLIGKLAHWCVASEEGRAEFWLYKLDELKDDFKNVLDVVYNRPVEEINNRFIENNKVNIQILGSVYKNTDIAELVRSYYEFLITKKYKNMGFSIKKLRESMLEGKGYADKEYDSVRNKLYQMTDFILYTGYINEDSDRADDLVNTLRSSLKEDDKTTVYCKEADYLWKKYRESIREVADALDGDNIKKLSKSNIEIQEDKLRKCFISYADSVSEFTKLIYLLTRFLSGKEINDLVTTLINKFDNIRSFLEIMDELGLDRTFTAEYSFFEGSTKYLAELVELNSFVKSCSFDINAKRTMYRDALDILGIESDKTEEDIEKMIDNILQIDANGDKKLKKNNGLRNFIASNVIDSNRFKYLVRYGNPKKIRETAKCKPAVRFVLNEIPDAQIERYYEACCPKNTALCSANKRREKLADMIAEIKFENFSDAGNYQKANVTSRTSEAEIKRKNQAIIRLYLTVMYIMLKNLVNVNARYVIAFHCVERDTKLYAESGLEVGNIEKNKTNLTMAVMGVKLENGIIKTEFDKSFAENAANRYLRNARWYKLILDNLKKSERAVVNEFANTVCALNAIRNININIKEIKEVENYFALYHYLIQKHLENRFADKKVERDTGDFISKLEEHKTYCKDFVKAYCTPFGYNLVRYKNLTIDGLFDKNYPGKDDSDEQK
# Target: T1, EsCas13d, nuclease-dead
# Assay: crRNA (strand 1, pre-loaded); Mg2+; 40 mM Tris-HCl pH 7.5, 150 mM NaCl, 6 mM MgCl2, 1 mM DTT, 0.1% Tween-20, 0.2 mg/ml BSA; 25 C; 10 min per concentration, then washed
# Conditions: tags: His6-TwinStrep-SUMO cleaved; N-terminal SNAP kept (SNAP-Surface 488); label: 3' end held by stalled T7 RNA polymerase
row,Binder,Kd [nM]
1,"target 3 insG 3' of 9,insA 3' of 2 (mixed) RNA 1: CACCCGUGCAAAAUUGCAGGGGUCUAAAACGACCUGAAUAUUUCAGAUCAAA RNA 2: GGGAAUGGAUCCACAUCUACGAAUUCGUUUUUGAUCUGAAAUAGUUCAGGUACUGCAGAUCGGAAGAGCACACGU",~102
2,target 3 insA 3' of 6 (mixed) RNA 1: CACCCGUGCAAAAUUGCAGGGGUCUAAAACGACCUGAAUAUUUCAGAUCAAA RNA 2: GGGAAUGGAUCCACAUCUACGAAUUCGUUUUUGAUCUGAAAUAUUCAAGGUCUGCAGAUCGGAAGAGCACACGU,7.8 ± 0.65
3,"target 3 insA 3' of 6,insG 3' of 5 (mixed) RNA 1: CACCCGUGCAAAAUUGCAGGGGUCUAAAACGACCUGAAUAUUUCAGAUCAAA RNA 2: GGGAAUGGAUCCACAUCUACGAAUUCGUUUUUGAUCUGAAAUAUUCAAGGGUCUGCAGAUCGGAAGAGCACACGU",5.51 ± 0.325
4,"target 3 insU 3' of 16,insA 3' of 2 (mixed) RNA 1: CACCCGUGCAAAAUUGCAGGGGUCUAAAACGACCUGAAUAUUUCAGAUCAAA RNA 2: GGGAAUGGAUCCACAUCUACGAAUUCGUUUUUGAUCUUGAAAUAUUCAGGUACUGCAGAUCGGAAGAGCACACGU",16.1 ± 1.9
5,"target 3 C1G,U7C (mixed) RNA 1: CACCCGUGCAAAAUUGCAGGGGUCUAAAACGACCUGAAUAUUUCAGAUCAAA RNA 2: GGGAAUGGAUCCACAUCUACGAAUUCGUUUUUGAUCUGAAAUAUCCAGGUGUGCAGAUCGGAAGAGCACACGU",73.5 ± 36
6,"target 3 insA 3' of 10,insC 3' of 10 (mixed) RNA 1: CACCCGUGCAAAAUUGCAGGGGUCUAAAACGACCUGAAUAUUUCAGAUCAAA RNA 2: GGGAAUGGAUCCACAUCUACGAAUUCGUUUUUGAUCUGAAAUACAUUCAGGUCUGCAGAUCGGAAGAGCACACGU",100 ± 37.5
7,"target 3 insA 3' of 10,insC 3' of 4 (mixed) RNA 1: CACCCGUGCAAAAUUGCAGGGGUCUAAAACGACCUGAAUAUUUCAGAUCAAA RNA 2: GGGAAUGGAUCCACAUCUACGAAUUCGUUUUUGAUCUGAAAUAAUUCAGCGUCUGCAGAUCGGAAGAGCACACGU",90 ± 32
8,"target 3 insC 3' of 12,insU 3' of 3 (mixed) RNA 1: CACCCGUGCAAAAUUGCAGGGGUCUAAAACGACCUGAAUAUUUCAGAUCAAA RNA 2: GGGAAUGGAUCCACAUCUACGAAUUCGUUUUUGAUCUGAACAUAUUCAGGUUCUGCAGAUCGGAAGAGCACACGU",106 ± 34
9,target 3 insU 3' of 4 (mixed) RNA 1: CACCCGUGCAAAAUUGCAGGGGUCUAAAACGACCUGAAUAUUUCAGAUCAAA RNA 2: GGGAAUGGAUCCACAUCUACGAAUUCGUUUUUGAUCUGAAAUAUUCAGUGUCUGCAGAUCGGAAGAGCACACGU,4.39 ± 0.415
10,"target 3 insU 3' of 13,insU 3' of 5 (mixed) RNA 1: CACCCGUGCAAAAUUGCAGGGGUCUAAAACGACCUGAAUAUUUCAGAUCAAA RNA 2: GGGAAUGGAUCCACAUCUACGAAUUCGUUUUUGAUCUGAUAAUAUUCAUGGUCUGCAGAUCGGAAGAGCACACGU",106 ± 45.5
11,"target 3 del1,del4 (mixed) RNA 1: CACCCGUGCAAAAUUGCAGGGGUCUAAAACGACCUGAAUAUUUCAGAUCAAA RNA 2: GGGAAUGGAUCCACAUCUACGAAUUCGUUUUUGAUCUGAAAUAUUCAGUUGCAGAUCGGAAGAGCACACGU",18 ± 2.5
12,"target 3 insU 3' of 22,insC 3' of 19 (mixed) RNA 1: CACCCGUGCAAAAUUGCAGGGGUCUAAAACGACCUGAAUAUUUCAGAUCAAA RNA 2: GGGAAUGGAUCCACAUCUACGAAUUCGUUUUUUGCAUCUGAAAUAUUCAGGUCUGCAGAUCGGAAGAGCACACGU",60.5 ± 15.5
13,"target 3 G3C,A11G (mixed) RNA 1: CACCCGUGCAAAAUUGCAGGGGUCUAAAACGACCUGAAUAUUUCAGAUCAAA RNA 2: GGGAAUGGAUCCACAUCUACGAAUUCGUUUUUGAUCUGAAGUAUUCAGCUCUGCAGAUCGGAAGAGCACACGU",61 ± 12
14,"target 3 A11G,A18G (mixed) RNA 1: CACCCGUGCAAAAUUGCAGGGGUCUAAAACGACCUGAAUAUUUCAGAUCAAA RNA 2: GGGAAUGGAUCCACAUCUACGAAUUCGUUUUUGGUCUGAAGUAUUCAGGUCUGCAGAUCGGAAGAGCACACGU",70 ± 25
15,"target 3 insA 3' of 6,insA 3' of 6 (mixed) RNA 1: CACCCGUGCAAAAUUGCAGGGGUCUAAAACGACCUGAAUAUUUCAGAUCAAA RNA 2: GGGAAUGGAUCCACAUCUACGAAUUCGUUUUUGAUCUGAAAUAUUCAAAGGUCUGCAGAUCGGAAGAGCACACGU",4.96 ± 0.355
16,"target 3 U20C,U22A (mixed) RNA 1: CACCCGUGCAAAAUUGCAGGGGUCUAAAACGACCUGAAUAUUUCAGAUCAAA RNA 2: GGGAAUGGAUCCACAUCUACGAAUUCGUUAUCGAUCUGAAAUAUUCAGGUCUGCAGAUCGGAAGAGCACACGU",55 ± 12
17,target 3 insC 3' of 22 (mixed) RNA 1: CACCCGUGCAAAAUUGCAGGGGUCUAAAACGACCUGAAUAUUUCAGAUCAAA RNA 2: GGGAAUGGAUCCACAUCUACGAAUUCGUUUCUUGAUCUGAAAUAUUCAGGUCUGCAGAUCGGAAGAGCACACGU,21.4 ± 2.3
18,"target 3 insA 3' of 4,insA 3' of 2 (mixed) RNA 1: CACCCGUGCAAAAUUGCAGGGGUCUAAAACGACCUGAAUAUUUCAGAUCAAA RNA 2: GGGAAUGGAUCCACAUCUACGAAUUCGUUUUUGAUCUGAAAUAUUCAGAGUACUGCAGAUCGGAAGAGCACACGU",33 ± 7
19,"target 3 insU 3' of 16,insU 3' of 16 (mixed) RNA 1: CACCCGUGCAAAAUUGCAGGGGUCUAAAACGACCUGAAUAUUUCAGAUCAAA RNA 2: GGGAAUGGAUCCACAUCUACGAAUUCGUUUUUGAUCUUUGAAAUAUUCAGGUCUGCAGAUCGGAAGAGCACACGU",76.5 ± 12
20,"target 3 insU 3' of 13,insU 3' of 4 (mixed) RNA 1: CACCCGUGCAAAAUUGCAGGGGUCUAAAACGACCUGAAUAUUUCAGAUCAAA RNA 2: GGGAAUGGAUCCACAUCUACGAAUUCGUUUUUGAUCUGAUAAUAUUCAGUGUCUGCAGAUCGGAAGAGCACACGU",49.5 ± 17.5
21,"target 3 insA 3' of 8,insA 3' of 6 (mixed) RNA 1: CACCCGUGCAAAAUUGCAGGGGUCUAAAACGACCUGAAUAUUUCAGAUCAAA RNA 2: GGGAAUGGAUCCACAUCUACGAAUUCGUUUUUGAUCUGAAAUAUAUCAAGGUCUGCAGAUCGGAAGAGCACACGU",58.5 ± 6.5
22,"target 3 C6G,A9G (mixed) RNA 1: CACCCGUGCAAAAUUGCAGGGGUCUAAAACGACCUGAAUAUUUCAGAUCAAA RNA 2: GGGAAUGGAUCCACAUCUACGAAUUCGUUUUUGAUCUGAAAUGUUGAGGUCUGCAGAUCGGAAGAGCACACGU",46.5 ± 5.5
23,"target 3 insG 3' of 7,insG 3' of 2 (mixed) RNA 1: CACCCGUGCAAAAUUGCAGGGGUCUAAAACGACCUGAAUAUUUCAGAUCAAA RNA 2: GGGAAUGGAUCCACAUCUACGAAUUCGUUUUUGAUCUGAAAUAUUGCAGGUGCUGCAGAUCGGAAGAGCACACGU",32.6 ± 5.4
24,"target 3 insU 3' of 3,insA 3' of 2 (mixed) RNA 1: CACCCGUGCAAAAUUGCAGGGGUCUAAAACGACCUGAAUAUUUCAGAUCAAA RNA 2: GGGAAUGGAUCCACAUCUACGAAUUCGUUUUUGAUCUGAAAUAUUCAGGUUACUGCAGAUCGGAAGAGCACACGU",39 ± 5
25,target 3 del22 (mixed) RNA 1: CACCCGUGCAAAAUUGCAGGGGUCUAAAACGACCUGAAUAUUUCAGAUCAAA RNA 2: GGGAAUGGAUCCACAUCUACGAAUUCGUUUUGAUCUGAAAUAUUCAGGUCUGCAGAUCGGAAGAGCACACGU,10.3 ± 1.2
26,"target 1 insG 3' of 20,insG 3' of 3 (mixed) RNA 1: CACCCGUGCAAAAAUGCAGGGGUCUAAAACUGAGCGGAUAACCUCUCUAUGG RNA 2: GGGAAUGGAUCCACAUCUACGAAUUCGUACCAGUAGAGAGGUUAUCCGCUGCACCGAGAUCGGAAGAGCACACGU",31 ± 9
27,"target 1 U8G,U11C (mixed) RNA 1: CACCCGUGCAAAAAUGCAGGGGUCUAAAACUGAGCGGAUAACCUCUCUAUGG RNA 2: GGGAAUGGAUCCACAUCUACGAAUUCGUACCAUAGAGAGGCUAGCCGCUCACCGAGAUCGGAAGAGCACACGU",29.5 ± 3.1
28,"target 1 C2G,A18C (mixed) RNA 1: CACCCGUGCAAAAAUGCAGGGGUCUAAAACUGAGCGGAUAACCUCUCUAUGG RNA 2: GGGAAUGGAUCCACAUCUACGAAUUCGUACCAUCGAGAGGUUAUCCGCUGACCGAGAUCGGAAGAGCACACGU",44 ± 4

# — PMC10786891, “Massively parallel profiling of RNA-targeting CRISPR-Cas13d”
